In PMC11615228, “3D variability analysis reveals a hidden conformational change controlling ammonia transport in human asparagine synthetase” (Nature Communications, 2024):

Molecular target: the molecule itself
Experiment: cryo-EM structure; single-particle cryo-EM of the purified enzyme without ligands; 25 mM Tris-HCl pH 8.0, 200 mM NaCl, 5 mM DTT; WT at 9.0 mg/mL, R142I at 3.2 mg/mL; grids made at 4 °C; C2 symmetry imposed

Row | Protein | stoichiometry N
1 | wild-type (WT) human asparagine synthetase (ASNS) (enzyme, UniProt P08243 1-561, looked up, human asparagine synthetase (glutamine-hydrolysing), unmodified recombinant enzyme; the N-terminal residue is Cys-1 (initiator Met removed) and the C-terminal tail ends at residue 560; Cys-1 is C2 in P08243); No tag is stated for the WT enzyme; the variants were purified on Ni-NTA, so the WT construct may also carry a His tag; Residues 201-220, 465-475 and 539-560 have no density in the EM map …) MCGIWALFGSDDCLSVQCLSAMKIAHRGPDAFRFENVNGYTNCCFGFHRLAVVDPLFGMQPIRVKKYPYLWLCYNGEIYNHKKMQQHFEFEYQTKVDGEIILHLYDKGGIEQTICMLDGVFAFVLLDTANKKVFLGRDTYGVRPLFKAMTEDGFLAVCSEAKGLVTLKHSATPFLKVEPFLPGHYEVLDLKPNGKVASVEMVKYHHCRDVPLHALYDNVEKLFPGFEIETVKNNLRILFNNAVKKRLMTDRRIGCLLSGGLDSSLVAATLLKQLKEAQVQYPLQTFAIGMEDSPDLLAARKVADHIGSEHYEVLFNSEEGIQALDEVIFSLETYDITTVRASVGMYLISKYIRKNTDSVVIFSGEGSDELTQGYIYFHKAPSPEKAEEESERLLRELYLFDVLRADRTTAAHGLELRVPFLDHRFSSYYLSLPPEMRIPKNGIEKHLLRETFEDSNLIPKEILWRPKEAFSDGITSVKNSWFKILQEYVEHQVDDAMMANAAQKFPFNTPKTKEGYYYRQVFERHYPGRADWLSHYWMPKWINATDPSARTLTHYKSAVKA | 2
2 | R142I ASNS variant (human asparagine synthetase with Arg-142 replaced by isoleucine) (enzyme, UniProt P08243 1-561, looked up, human asparagine synthetase with R142I; only elution from Ni-NTA with imidazole is described; also called R142I variant; ASNS R142I; source: Sf9 cells (baculovirus), purified (Ni-NTA, PD-10 buffer exchange)) MCGIWALFGSDDCLSVQCLSAMKIAHRGPDAFRFENVNGYTNCCFGFHRLAVVDPLFGMQPIRVKKYPYLWLCYNGEIYNHKKMQQHFEFEYQTKVDGEIILHLYDKGGIEQTICMLDGVFAFVLLDTANKKVFLGRDTYGVIPLFKAMTEDGFLAVCSEAKGLVTLKHSATPFLKVEPFLPGHYEVLDLKPNGKVASVEMVKYHHCRDVPLHALYDNVEKLFPGFEIETVKNNLRILFNNAVKKRLMTDRRIGCLLSGGLDSSLVAATLLKQLKEAQVQYPLQTFAIGMEDSPDLLAARKVADHIGSEHYEVLFNSEEGIQALDEVIFSLETYDITTVRASVGMYLISKYIRKNTDSVVIFSGEGSDELTQGYIYFHKAPSPEKAEEESERLLRELYLFDVLRADRTTAAHGLELRVPFLDHRFSSYYLSLPPEMRIPKNGIEKHLLRETFEDSNLIPKEILWRPKEAFSDGITSVKNSWFKILQEYVEHQVDDAMMANAAQKFPFNTPKTKEGYYYRQVFERHYPGRADWLSHYWMPKWINATDPSARTLTHYKSAVKA | 2
